Data published in patent US20090203048A1 (UNIVERSITY OF MASSACHUSETTS, published 2009).

Columns and labels:
[1] = target: bombesin receptor of PC3 cells; assay: 125I-ligand binding to PC3 cells; with 60 µM NIF
[2] = target: bombesin receptor of PC3 cells; assay: 125I-ligand binding to PC3 cells, 37C; with 60 µM MK886
[3] = target: bombesin receptor of PC3 cells; assay: displacement of 125I-ligand by unlabeled ligand, PC3 cells, 37C
[4] = target: bombesin receptor of PC3 cells; assay: 125I-ligand binding to PC3 cells; with 12 µM SKF-96365
[5] = target: bombesin receptor of PC3 cells; assay: 125I-ligand binding to PC3 cells, 37C; with 12 µM Rev-5901
[6] = target: bombesin receptor of PC3 cells; assay: 125I-ligand binding to PC3 cells, 37C; with 12 µM MK886
[7] = target: bombesin receptor of PC3 cells; assay: 125I-ligand binding to PC3 cells, 37C
[8] = target: bombesin receptor of PC3 cells; assay: 125I-ligand binding to PC3 cells, 37C; with 60 µM AA-861
[9] = target: bombesin receptor of PC3 cells; assay: 125I-ligand binding to PC3 cells; with 12 µM verapamil
[10] = target: bombesin receptor of PC3 cells; assay: 125I-ligand binding to PC3 cells, 37C; with 60 µM Rev-5901
[11] = target: bombesin receptor of PC3 cells; assay: 125I-ligand binding to PC3 cells, 37C; with 60 µM NDGA
[12] = target: bombesin receptor of PC3 cells; assay: 125I-ligand binding to PC3 cells; with 12 µM NIF
[13] = target: bombesin receptor of PC3 cells; assay: 125I-ligand binding to PC3 cells; with 60 µM phloretin
[14] = target: bombesin receptor of PC3 cells; assay: 125I-ligand binding to PC3 cells; with 60 µM SKF-96365
[15] = target: bombesin receptor of PC3 cells; assay: 125I-ligand binding to PC3 cells; with 12 µM phloretin
[16] = target: bombesin receptor of PC3 cells; assay: 125I-ligand binding to PC3 cells, 37C; with 12 µM AA-861
[17] = target: bombesin receptor of PC3 cells; assay: 125I-ligand binding to PC3 cells; with 60 µM verapamil
[18] = target: bombesin receptor of PC3 cells; assay: 125I-ligand binding to PC3 cells, 37C; with 12 µM NDGA
[19] = target: bombesin receptor of PC3 cells; assay: Scatchard analysis, PC3 cells, 37C
[20] = target: vasopressin (V1a) receptor of PC3 cells (UniProt P37288); assay: 125I-HOLVA binding to PC3 cell membranes; with 60 µM verapamil
[21] = target: vasopressin (V1a) receptor of PC3 cells (UniProt P37288); assay: 125I-ligand binding to PC3 cells; with 60 µM NIF
[22] = target: vasopressin (V1a) receptor of PC3 cells (UniProt P37288); assay: 125I-ligand binding to PC3 cells, 37C; with 60 µM MK886
[23] = target: vasopressin (V1a) receptor of PC3 cells (UniProt P37288); assay: displacement of 125I-ligand by unlabeled ligand, PC3 cells, 37C
[24] = target: vasopressin (V1a) receptor of PC3 cells (UniProt P37288); assay: 125I-HOLVA binding to PC3 cell membranes; with 60 µM SKF-96365
[25] = target: vasopressin (V1a) receptor of PC3 cells (UniProt P37288); assay: 125I-HOLVA binding to PC3 cell membranes; with 60 µM NIF
[26] = target: vasopressin (V1a) receptor of PC3 cells (UniProt P37288); assay: 125I-ligand binding to PC3 cells; with 12 µM SKF-96365
[27] = target: vasopressin (V1a) receptor of PC3 cells (UniProt P37288); assay: 125I-ligand binding to PC3 cells, 37C; with 12 µM Rev-5901
[28] = target: vasopressin (V1a) receptor of PC3 cells (UniProt P37288); assay: 125I-ligand binding to PC3 cells, 37C; with 12 µM MK886
[29] = target: vasopressin (V1a) receptor of PC3 cells (UniProt P37288); assay: 125I-ligand binding to PC3 cells, 37C
[30] = target: vasopressin (V1a) receptor of PC3 cells (UniProt P37288); assay: 125I-ligand binding to PC3 cells, 37C; with 60 µM AA-861
[31] = target: vasopressin (V1a) receptor of PC3 cells (UniProt P37288); assay: 125I-ligand binding to PC3 cells; with 12 µM verapamil
[32] = target: vasopressin (V1a) receptor of PC3 cells (UniProt P37288); assay: 125I-ligand binding to PC3 cells, 37C; with 60 µM Rev-5901
[33] = target: vasopressin (V1a) receptor of PC3 cells (UniProt P37288); assay: 125I-ligand binding to PC3 cells, 37C; with 60 µM NDGA
[34] = target: vasopressin (V1a) receptor of PC3 cells (UniProt P37288); assay: 125I-ligand binding to PC3 cells; with 12 µM NIF
[35] = target: vasopressin (V1a) receptor of PC3 cells (UniProt P37288); assay: 125I-ligand binding to PC3 cells; with 60 µM phloretin
[36] = target: vasopressin (V1a) receptor of PC3 cells (UniProt P37288); assay: 125I-ligand binding to PC3 cells; with 60 µM SKF-96365
[37] = target: vasopressin (V1a) receptor of PC3 cells (UniProt P37288); assay: 125I-ligand binding to PC3 cells; with 12 µM phloretin
[38] = target: vasopressin (V1a) receptor of PC3 cells (UniProt P37288); assay: 125I-ligand binding to PC3 cells, 37C; with 12 µM AA-861
[39] = target: vasopressin (V1a) receptor of PC3 cells (UniProt P37288); assay: 125I-ligand binding to PC3 cells; with 60 µM verapamil
[40] = target: vasopressin (V1a) receptor of PC3 cells (UniProt P37288); assay: 125I-ligand binding to PC3 cells, 37C; with 12 µM NDGA
[41] = target: vasopressin (V1a) receptor of PC3 cells (UniProt P37288); assay: Scatchard analysis, PC3 cells, 37C
[42] = target: T1, neurotensin receptor 1 (NTR1) of PC3 cells (UniProt P30989 1-418, limits assumed); assay: UV crosslinking on PC3 cells, immunoprecipitated NTR1; with phloretin against control
T1 construct: whole, on cells; its antiserum peptide is from human NTR1; Some assays used isolated PC3 cell membranes or detergent or SDS extracts instead of live cells (see the assay field); also called NT receptor

[43] = target: T1, neurotensin receptor 1 (NTR1) of PC3 …; assay: UV crosslinking on PC3 cells, immunoprecipitated NTR1; with NIF against control
[44] = target: T1, neurotensin receptor 1 (NTR1) of PC3 …; assay: UV crosslinking on PC3 cells, immunoprecipitated NTR1; with 50 µM NDGA
[45] = target: T1, neurotensin receptor 1 (NTR1) of PC3 …; assay: UV crosslinking on PC3 cells, immunoprecipitated NTR1; with verapamil against control
[46] = target: T1, neurotensin receptor 1 (NTR1) of PC3 …; assay: UV crosslinking on PC3 cells, immunoprecipitated NTR1; with 50 µM MK886

Sequence of bombesin receptor of PC3 cells (P30550 whole entry): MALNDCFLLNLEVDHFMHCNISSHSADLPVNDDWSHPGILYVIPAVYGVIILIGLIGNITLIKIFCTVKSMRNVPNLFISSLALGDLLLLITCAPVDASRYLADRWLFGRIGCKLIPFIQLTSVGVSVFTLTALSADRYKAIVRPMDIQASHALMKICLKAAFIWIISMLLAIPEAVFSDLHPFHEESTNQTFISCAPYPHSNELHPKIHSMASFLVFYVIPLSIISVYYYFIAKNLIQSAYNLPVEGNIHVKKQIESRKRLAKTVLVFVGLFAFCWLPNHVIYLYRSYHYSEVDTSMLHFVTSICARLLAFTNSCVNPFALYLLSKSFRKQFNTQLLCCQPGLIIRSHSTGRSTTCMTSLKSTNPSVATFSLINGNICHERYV
Sequence of vasopressin (V1a) receptor of PC3 cells (P37288 whole entry): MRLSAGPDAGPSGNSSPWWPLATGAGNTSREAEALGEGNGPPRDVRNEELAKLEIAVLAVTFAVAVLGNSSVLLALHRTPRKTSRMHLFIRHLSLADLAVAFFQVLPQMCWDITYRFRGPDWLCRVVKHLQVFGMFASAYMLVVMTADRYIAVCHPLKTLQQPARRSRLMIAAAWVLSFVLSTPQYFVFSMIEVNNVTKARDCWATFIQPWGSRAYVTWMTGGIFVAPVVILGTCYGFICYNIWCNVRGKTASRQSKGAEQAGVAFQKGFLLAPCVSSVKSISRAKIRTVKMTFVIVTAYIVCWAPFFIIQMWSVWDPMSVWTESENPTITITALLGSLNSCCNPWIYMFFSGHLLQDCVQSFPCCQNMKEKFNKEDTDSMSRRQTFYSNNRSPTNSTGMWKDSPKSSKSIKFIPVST
T1 sequence (P30989 whole entry): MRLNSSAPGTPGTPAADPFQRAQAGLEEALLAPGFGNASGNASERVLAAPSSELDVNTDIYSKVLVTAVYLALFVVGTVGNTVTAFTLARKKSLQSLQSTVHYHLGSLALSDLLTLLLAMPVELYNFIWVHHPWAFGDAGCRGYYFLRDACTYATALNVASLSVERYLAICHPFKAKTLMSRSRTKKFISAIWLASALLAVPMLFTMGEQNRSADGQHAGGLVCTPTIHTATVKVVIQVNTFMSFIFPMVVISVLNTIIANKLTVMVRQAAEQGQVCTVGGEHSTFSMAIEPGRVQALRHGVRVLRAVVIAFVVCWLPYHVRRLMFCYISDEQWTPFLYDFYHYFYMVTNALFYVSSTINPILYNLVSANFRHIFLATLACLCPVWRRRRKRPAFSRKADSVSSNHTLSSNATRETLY

(Tyr 4, Nle 14)-bombesin (peptide) was tested. Which Specific Binding (% control) [1] did it give?
Its Specific Binding (% control) is 119 % control.

And the Specific Binding (% control) [2]?
Its Specific Binding (% control) is 125 % control.

What about the Ki [3] of the same molecule?
The Ki was 0.6 nM.

And the Specific Binding (% control) [4]?
Its Specific Binding (% control) is 99 % control.

And the Specific Binding (% control) [5]?
Its Specific Binding (% control) is 107 % control.

And the Specific Binding (% control) [6]?
The Specific Binding (% control) was 106 % control.

What about the Specific Binding (% of total) [7] of the same molecule?
Its Specific Binding (% of total) is 95 % of total.

What about the Specific Binding (% control) [8] of the same molecule?
The Specific Binding (% control) was 135 % control.

And the Specific Binding (% control) [9]?
The Specific Binding (% control) was 104 % control.

And the Specific Binding (% control) [10]?
Its Specific Binding (% control) is 119 % control.

What about the Specific Binding (% control) [11] of the same molecule?
Its Specific Binding (% control) is 127 % control.

And the Specific Binding (% control) [12]?
The Specific Binding (% control) was 108 % control.

What about the Specific Binding (% control) [13] of the same molecule?
The Specific Binding (% control) was 111 % control.

And the Specific Binding (% control) [14]?
Its Specific Binding (% control) is 106 % control.

And the Specific Binding (% control) [15]?
Its Specific Binding (% control) is 104 % control.

What about the Specific Binding (% control) [16] of the same molecule?
The Specific Binding (% control) was 112 % control.

What about the Specific Binding (% control) [17] of the same molecule?
The Specific Binding (% control) was 104 % control.

And the Specific Binding (% control) [18]?
The Specific Binding (% control) was 110 % control.

And the Bmax [19]?
The Bmax was 1020 fmol/mg.

How did the Binding (% control) [20] turn out when “des-Gly-[Phaal, D-Tyr(Et)2, Lys6, Arg8]-vasopressin (HOLVA) (peptide)” was run?
The Binding (% control) was 91 % control.

And the Specific Binding (% control) [21]?
Its Specific Binding (% control) is 59 % control.

And the Specific Binding (% control) [22]?
Its Specific Binding (% control) is 67 % control.

And the Ki [23]?
The Ki was 0.5 nM.

And the Binding (% control) [24]?
Its Binding (% control) is 110 % control.

What about the Binding (% control) [25] of the same molecule?
The Binding (% control) was 90 % control.

What about the Specific Binding (% control) [26] of the same molecule?
Its Specific Binding (% control) is 80 % control.

What about the Specific Binding (% control) [27] of the same molecule?
Its Specific Binding (% control) is 68 % control.

And the Specific Binding (% control) [28]?
Its Specific Binding (% control) is 93 % control.

What about the Specific Binding (% of total) [29] of the same molecule?
The Specific Binding (% of total) was 77 % of total.

What about the Specific Binding (% control) [30] of the same molecule?
The Specific Binding (% control) was 57 % control.

And the Specific Binding (% control) [31]?
The Specific Binding (% control) was 85 % control.

What about the Specific Binding (% control) [32] of the same molecule?
Its Specific Binding (% control) is 42 % control.

What about the Specific Binding (% control) [33] of the same molecule?
The Specific Binding (% control) was 50 % control.

And the Specific Binding (% control) [34]?
The Specific Binding (% control) was 95 % control.

And the Specific Binding (% control) [35]?
The Specific Binding (% control) was 73 % control.

And the Specific Binding (% control) [36]?
Its Specific Binding (% control) is 50 % control.

What about the Specific Binding (% control) [37] of the same molecule?
The Specific Binding (% control) was 92 % control.

What about the Specific Binding (% control) [38] of the same molecule?
Its Specific Binding (% control) is 87 % control.

What about the Specific Binding (% control) [39] of the same molecule?
The Specific Binding (% control) was 58 % control.

And the Specific Binding (% control) [40]?
The Specific Binding (% control) was 84 % control.

What about the Bmax [41] of the same molecule?
The Bmax was 156 fmol/mg.

B1: ^125I-[4-azido-Phe^6]-NT (peptide)
peptide: ELYENFPRRPYIL
modifications: 4-azido-Phe at position 6; pGlu at position 1; 125I iodinated
notes: the residue at 6 is 4-azido-phenylalanine
With B1 as the molecule, how does the “fold increase in radioactivity associated with NTR1” value (“fold increase” for short) [42] read?
Its value is 1.8 fold.

What about the “fold increase” value [43] of the same molecule?
Its value is 2.8 fold.

And the “fold increase” value [44]?
The value was 2.6 fold.

And the “fold increase” value [45]?
Its value is 1.5 fold.

What about the “fold increase” value [46] of the same molecule?
Its value is 2.7 fold.
